Measurements reported in the nanobody polyreactivity screen of Harvey et al. (2022).

Experiment: yeast display, Sf9 membrane polyspecificity reagent, FACS + sequencing; frameworks hold sequencing errors
In short: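 Polyreactivity labels are assigned by the sorting gate from which each nanobody was recovered. The gates were low and high (top ~1%), set on anti-HA fluorescence for expression and streptavidin fluorescence for reagent binding. Before sorting, galactose-induced (36–48 hours) yeast display cells were stained for 1 hour at 4 °C with 10% biotinylated, detergent-solubilized Sf9 membrane reagent.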

QVQLVESGGGLVQAGGSLRLSCAASGLIFVYYTMGWYRQAPGKERELVARISQSGGTTYYADSVKRRFTISRDNAKNTVYLQLNSLKREDTAVYYCAAVYQLYYSGGRYYYWGQGSQVTVSS
polyreactivity (PSR sort gate): high polyreactivity

QLQLVDSGGGLVQAGGSLRLSCAASGRIFSANAMGWYRQAPGKERELVAAIDGSDGITYYADSVKGRFTISRDNAKNTVYLQMNSLKPEDTAVYYCAAYLPYTTYRYRYDYWGQGNQVTVSS
polyreactivity (PSR sort gate): high polyreactivity

QVQLVESGGGLVQAGGSLRLSCAASGSIFSNNAMGWYRQAPGKERELVAAITRSGGNTYYADSVKGRFTISRDNAKNTVYLQMNSLKPEDTAVYYCNAVHLRKMYYWGQGTQVTVSS
polyreactivity (PSR sort gate): high polyreactivity

QVQLVESGGGLVQAGGSLRLSCAASGRTFNSHVMRWYRQAPGKERELVAAISSRGGGTYYADSVKGRFTISRDNAKNTVYLQMNSLNPEDTAVYYCITVVSRSYRDGPPDPYDSWGQGTQVTVSS
polyreactivity (PSR sort gate): high polyreactivity

QVQLVESRGGLVQAGGSLRLSCAASGRIFSNNAMGCYRQAPGKERELVAAITASSGSTYYADSVKGRFTISRDNAKNTVYLQMNSLKPEDTAVYYCAATLRWGFRWYFGFDYWGQGTQLTVSS
polyreactivity (PSR sort gate): high polyreactivity

QVQLVESGGGLVQAGGSLRLSCAASGRTFYPYAMGWYRQAPGKERELVATIRWTGGSTYYADSVKGRFTISRDNAKNTVYLQMNSLKPEDTAVYYCAAQNYFAFIRTYRYVHRPTYYYWGQGTQVTVSS
polyreactivity (PSR sort gate): high polyreactivity

QVQLVESGGGLVQAGGSLRLSCAASGSIFAHYAMGWYRQAPGKARELVAAISRGGGSTYYSDSVKGRFTISRDNAKNTVYLQMNSLKPEDTAVYYCAVVRSYRGINDYWGQGTQVTVTS
polyreactivity (PSR sort gate): low polyreactivity

QVQLVESGGRIVQAGGSLRLSCAASGSTFYPYAMGWSRPAPGKEGQFVAAITWSGGSTYADSVKGRFTISRDNAKNTVYLQMNSLKPEDTAVYYCAAQPFVIEGGYRGDYWGQGTQETVSS
polyreactivity (PSR sort gate): low polyreactivity

QVQHVESGGGLVQAGGSLRLSCAASGRTFYRYAMGWYRQAPGKERELVAAISGSGTSTSYADSVKGRFTISRDNAKNSVYLQMNSLKPEDTAVYYCAATYYVYYYSRYYFWGQGTQVTVSS
polyreactivity (PSR sort gate): high polyreactivity

QVQLVESGGGLVQAGGILRLSCAASGSTGTYMGSYRQAPGKEREMVAAIDNIGDNTYYADSVKGRFTISRDNAKNTVYLQMNSLKPEDTAVYYCPADFYVYYPWLFEYDYWGQGTQVTVSS
polyreactivity (PSR sort gate): low polyreactivity

QVQLVESGGGLVQAGGSLRLICAASGSIYYSYGMGWYRQAPGKERELVAAITSSGGGTYYADSVKGRFTISRDNAKNTFYLQMNSLKPEDTAVYYCAADDRNYNYYPTFYYWGQGTQVTVSS
polyreactivity (PSR sort gate): low polyreactivity

QVQLVESGGGLVEAGGSLRLSCAASGRTFFKYTMGWYRQAPGKERELVSAITGSGASTYYADSVKGRFTISRDNAKNTVYLQMNSLKPEDTAVYYCAAVLTVKKGDKYGYWGQGTQVTVSS
polyreactivity (PSR sort gate): high polyreactivity

QDQHVESGGGLVQAGGSLRLSCAASGSTFTGYDMGRYRQAPGKERELVAAISWNGGSTYYADSVKGRFTISRDNAKNTVYLQMNSLKPEDTAVYYCAKVTLTHSRFRYYYWGQGTQVTVSS
polyreactivity (PSR sort gate): high polyreactivity

QVQLVESGGGLVQAGGSLRLSCAASGSIFWGYAMGWYRQAPGKERELVAAIRVSGGSTYYADSVKGRFTISRDNAKNTVYLQMNSLKPEDTAVYYCARDTWGGFSSADNYWGQGTQVTVSS
polyreactivity (PSR sort gate): high polyreactivity

QVQVVESGGGFVQAGGSLRISCAASGRIFATYAMGWYRQAPGKERELVAAISDSGGRTYYADSVKGRFTISRDTAKNTVYFQMNSLKPEDTAVYYCNARGTRASRYDYWGQGTQVTVSS
polyreactivity (PSR sort gate): high polyreactivity

QVHLVESGGGLFQAGGSLRISCSASGSIFARNAMGWYRQAPGKERELVAAISRSGGSTYYADSVKGRFTISRDNAMMTVSFQMNSLKPEDTAVYYCAAVRRRTVGYNYWGQGTQVTVSS
polyreactivity (PSR sort gate): high polyreactivity

QVQLVESGGGLVQAGGSLRLSCAASGFTFYSYARGWYRQAPGKERELVAVINSSGGRTFYADSVKGRFTISRDNAKNTVYLQMNSLKPEDTAVYYCAARYAASRGPNQGKGNYWGQGTQVTVSS
polyreactivity (PSR sort gate): high polyreactivity

QVQLVESGGGLVQAGGSLRLSCAASGRIFSIYAMGWYRQAPVKERELVAAISKRGGSTSYADSVKGRFTISRDNAKNTVYLQMNSLKPEDTAVYYCNARGWIPARGWDDYYWGQGTQVTVSS
polyreactivity (PSR sort gate): high polyreactivity

QVHLVESGGGLVQAGGSLRLSSPASGRIFQDNAMGWYRQAPGKERELVAAISSSGGSTYYADSVKGRFTISRDNAKNTVYLHMNSLKPEDTAVYYCAADYYWYWDLYDYWGQGTQVSVSS
polyreactivity (PSR sort gate): high polyreactivity

QVQLVESRGGLVQAGGSLRLSCAASGMTFSDYPMGLYRQAPGKEREFVSAITSGGRTNYADSVKGRFTISRDNAKNTVYLQMNSLKPEDTAVYYCAAVYTYVYYYHYPYYYWGQGTQVTVSS
polyreactivity (PSR sort gate): low polyreactivity

QVQLVETGGGLVQAGGSLRLSCAASGSIFWSNAMGWYRQAPGKERELVAAITSGGRTYYADSVKGRFTISRDNAKNTVYLQMNSLKPEDTAVYYCAAYWNSATGFDYWGQVTQVTVSS
polyreactivity (PSR sort gate): high polyreactivity

QVQLVESGGGLVQAGGSLSLSCAASGITFVIYVMGWYRQAPGKERELVAAISWIGGSTYYADSVKGRFTISRDYAKNTVYLQMNSLKPEDTAVYYCATDYVVVVSTGYDYWGQGTQVTVSS
polyreactivity (PSR sort gate): low polyreactivity

QVQLVESGGGLVQAGGSLRLSCAASGSIFYKYMGWNIQAPGKERELVAAISWSGGRTYYADSVKGRFTISRDNAKNTVYLQMNSLKPEDTAVYYCNRVVLWRIGDKAFEYWGQGTQVTVSS
polyreactivity (PSR sort gate): high polyreactivity

QVQLVETGGVLVQAGGSLRLSCAASGSIFQQNAMGGYRQAPGKERELVASISSGGRTNYADSVKGRCTISRDNAKNTVYLQMNSLKPEDTAVYYCAKTRIRYKPLHFYYWGQGTQVTVSS
polyreactivity (PSR sort gate): low polyreactivity

QVQLVESGGGLVQAGGSLRLSCAASGYILPKNTMGWYRQAPGKERELVAAISWSGGSTFYADSVKGRFTISRDNAKNTVYLQMNSLKPEDTAVYYCAADRSWSWYYRYDYWGQGTQVTVSS
polyreactivity (PSR sort gate): low polyreactivity

QVQLVESGGGLVQAGGSLRLSCAASGRIFPVNAMGWYRQAPGKEREFVARISRRGGSTYYADSVKGRFTISRDYEKNTVYLQMNSLKPEDTAVYYCAAVSSRYSYDYWGQGTQVTVSS
polyreactivity (PSR sort gate): high polyreactivity

QVHLVESGGRLVQAGGSIRLSCAASGLTYGSYAMGWYRQAPGKERELVAAIYQSGGSTYYADSVMARFTISRDNANNTVYLQMNRLKPEDTVVYYCNAEAWVTLDWWQWVAYDFWGQGTQVTVSS
polyreactivity (PSR sort gate): high polyreactivity

QVQLVESGGCLVQAGGSLRLICAASVSIFYYYAMGWYRQAPGKERELVATIRSSDGSTYYADSVKGRFTISRDNAKNTVYLQMYSLKPEDTAVYYCAHGYFRYDYWGQGTQVSVSS
polyreactivity (PSR sort gate): low polyreactivity

QVQLVESGGGLVQAGGSLRLSCAASGRTFAIYTRGWYRQAPGKERELVASITSSGASTYYADSVKGRFTISRDNAKNTVYLQMNSLKPEYTAVYYCAAGWYQGFDYWGQGTQVTVSS
polyreactivity (PSR sort gate): high polyreactivity

QVQLVESGGGLVQAGGSLRLSCAASGSTFRYNAMGWYRQAPGKERELVAAITSGGGTNYADSVKGRFTISRDNAKNTVYLQMNSLKPEDTAVYYCAAGAWRGPYSGYYYWGQGTQVTVSS
polyreactivity (PSR sort gate): low polyreactivity

QVQLVESGGGLVQAGGSLRLSCAASGIIFYFYAMGWSRQAPGKERELVAAISSGGGSTYYADSVKGRFTISRDNAKNTVYLQMNSLKPEDTAVYYCAAKIGRNFDWGQGTQVTVSS
polyreactivity (PSR sort gate): high polyreactivity

QVQLVESGGGLVQAGGSHRLSCAASGRILYGYAMGWYRQAPGQERELVASITWSGGSTYADSVKGRFTISRDNAKNTVYLQMKSLKPEDTAVYYCATRRGPKWQWLTYGYWGLGTQVTVSS
polyreactivity (PSR sort gate): low polyreactivity

QVQLVESGVGLVQAGGSLRLSCAASGRTLGVYTMGWYRQAPGKERELVAAITTGGSTKYADSVKGRFTISRDNAKNTVYLQMNSLKPEDTAVYYCATDLVFDKRYWYDYWGQGTQVTVSS
polyreactivity (PSR sort gate): low polyreactivity

QVQLVESGGGLVQAGGSLRLSCAASGFIFLSYAMGWYRQAPGKESELVAAITSNGGSTYYADSVKGRFTISRDNAKNTVYLQMNSLKPEDTAVYYCSADSGYGPYYYWGQGTQVTVSS
polyreactivity (PSR sort gate): high polyreactivity

QVQLQESGGGLVQAGGSLGCAASGNISTRSEMGWYRQAPGKEREFVATINSGGITNYADSVKGRFTISRDNAKNTVYLRMNSLKPEDTAVYYRAVYGDFSDPYDYWGQGTQVTVSS
polyreactivity (PSR sort gate): low polyreactivity

QVQLVESGGGLVQAGGSLRLSCAASGITFGRNTMGWYRQAPGKERELVAAIDSGGNTYADSVKGRFTISRDNAKNTVYLQMNSLKPEDTAVYYCNARSYYGYGRYDYWGQGTQVTVSS
polyreactivity (PSR sort gate): low polyreactivity

QVQLVESGGGLVQAGGSLRLSCASSGSIGYYAMGWYRQAPGKERELVAAIDWSGGDTYYADSVKGRFTISRDNAKNTVYLQMNSLKPEDTAVYYCAADAGRYLPDCTYDYWGQGTQVTVSS
polyreactivity (PSR sort gate): low polyreactivity

QVQLVESGVGLVQAGGSLRLSCAASGFIFDHNAMGWYRQAPGKERELVAAITRSGGSTYYADSVKGRFTISRDNAKNTVYLQMNSLKPEDTAVYYCAADLSYRGATRGDYYWGQGTQVTVSS
polyreactivity (PSR sort gate): low polyreactivity

QVQLVESGGGLVQAGGSLRLSCAASGFIFAQNAMGWYRQAPGKEREFVAAISSRGSRTYYADSVKGRFTISRDNAKNTVYLQMNSLKPEDTAVYYCAASRRTRSMNYWGQGTQVTVSS
polyreactivity (PSR sort gate): high polyreactivity

QVQLVESGGGLVQAGGSLRLSCAASGLIFSYYTMGWYRQAPGKERELVAAISSSAGSTYYADSVKGRCTISRDNAKNTVYCQMNSLKPEDTAVYYCNVRTLVQHHSSYSSRYESWGQGTHVTVSS
polyreactivity (PSR sort gate): high polyreactivity

QVQLVESGGGLVQAGGILRLSCASSGRIFGVNAMGWYRQATGKERELVATISSGGSTYYADSVKGRFTISRDNAKNTVYLQLNSLKPEDTAVYYCAADTRRYYLARYRTDYWGQGTQVTVSS
polyreactivity (PSR sort gate): high polyreactivity

QVQLVESGGGLVQAGGSLGLSCAASGSTFAGNTMGWYRQAPGKERELVATITRGDSTNYADSVKGRFTISRDNAKNTVYLQMNSLIPEDTAVYYCAAVGRRRTTVGRYVRMDYWGQGTQVTVSS
polyreactivity (PSR sort gate): low polyreactivity

QVQIVESGGGLVQAGGSLRLSCAASGSTFTIYAMGRYRQAPGKERELVAAISSGGSTYYADSVKGRFTISRDNAKNTVYLQMNSLKPEDTAVYYCAARVYLSGYGYNYWGQGTQVTVSS
polyreactivity (PSR sort gate): high polyreactivity
